Source: patent publication US12383631 (BRIGHT PEAK THERAPEUTICS, dated 2025)
Positions count from the first letter of the chain named. Names may count otherwise.

T1: IL-18 receptor (IL-18Rα/IL-18Rβ) on cells (HEK-Blue IL18R reporter cells, NK-92, KG-1) (human, UniProt Q13478 19-541; O95256 20-599)
T1 sequence (looked up) 1: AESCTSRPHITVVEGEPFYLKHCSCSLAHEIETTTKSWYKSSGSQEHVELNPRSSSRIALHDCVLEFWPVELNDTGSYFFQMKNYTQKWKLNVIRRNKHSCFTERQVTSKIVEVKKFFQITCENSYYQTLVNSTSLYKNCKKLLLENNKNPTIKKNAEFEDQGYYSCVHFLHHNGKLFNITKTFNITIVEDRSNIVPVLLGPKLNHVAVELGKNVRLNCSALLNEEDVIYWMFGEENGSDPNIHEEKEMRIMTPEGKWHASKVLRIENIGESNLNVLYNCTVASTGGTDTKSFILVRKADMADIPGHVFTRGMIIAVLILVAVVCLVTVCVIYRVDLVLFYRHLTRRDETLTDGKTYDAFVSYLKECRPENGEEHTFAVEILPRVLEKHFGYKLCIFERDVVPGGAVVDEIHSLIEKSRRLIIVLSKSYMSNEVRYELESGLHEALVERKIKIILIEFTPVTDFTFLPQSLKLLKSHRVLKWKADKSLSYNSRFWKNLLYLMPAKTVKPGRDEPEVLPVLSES
T1 sequence (looked up) 2: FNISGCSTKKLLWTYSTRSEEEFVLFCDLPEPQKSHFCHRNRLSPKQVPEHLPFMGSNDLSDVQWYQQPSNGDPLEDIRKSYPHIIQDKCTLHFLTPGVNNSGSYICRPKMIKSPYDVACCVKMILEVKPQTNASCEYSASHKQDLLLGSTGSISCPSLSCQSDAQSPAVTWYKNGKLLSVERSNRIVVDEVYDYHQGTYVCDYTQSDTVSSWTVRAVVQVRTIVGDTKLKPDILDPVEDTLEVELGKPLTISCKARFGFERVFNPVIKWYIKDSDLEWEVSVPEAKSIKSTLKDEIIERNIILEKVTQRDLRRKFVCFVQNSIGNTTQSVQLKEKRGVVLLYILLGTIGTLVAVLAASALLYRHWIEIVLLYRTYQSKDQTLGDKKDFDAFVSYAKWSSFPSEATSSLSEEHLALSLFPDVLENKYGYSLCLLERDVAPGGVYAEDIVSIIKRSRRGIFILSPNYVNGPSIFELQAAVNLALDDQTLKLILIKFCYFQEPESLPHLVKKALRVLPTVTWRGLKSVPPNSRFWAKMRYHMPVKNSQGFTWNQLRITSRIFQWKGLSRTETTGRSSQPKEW

T2: human IL-18BP-His (human, UniProt O95998 31-194, limits assumed)
T2 construct: also called His-tagged human IL-18BP; not shown: His tag
T2 sequence (looked up): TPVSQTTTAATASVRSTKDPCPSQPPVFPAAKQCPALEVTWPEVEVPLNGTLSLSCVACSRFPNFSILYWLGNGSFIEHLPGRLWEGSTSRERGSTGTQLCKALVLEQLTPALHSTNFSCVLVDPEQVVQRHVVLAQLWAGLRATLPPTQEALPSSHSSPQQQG

B1: IL-18 polypeptide C141 (SEQ ID NO: 71) (ligand)
chain: GYFGKLKSKLSIIRNLNDQVLFIDQGNRPLFEDMTDSDARDNAPRTIFIISMYADSQPRGMAVAISVKCEKISTLSAENKIISFKEMNPPDNIKDTKSDIIFFQRSVPGHDNKMQFESSSYEGYFLAAEKERDLFKLILKKEDELGDRSIMFTVQNED
B2: IL-18 polypeptide C192 (SEQ ID NO: 70) (ligand)
chain: B1 chain with M52G
B3: IL-18 polypeptide C140 (SEQ ID NO: 72) (ligand)
chain: GGGGYFGKLKSKLSIIRNLNDQVLFIDQGNRPLFEDMTDSDARDNAPRTIFIISMYADSQPRGMAVAISVKCEKISTLSAENKIISFKEMNPPDNIKDTKSDIIFFQRSVPGHDNKMQFESSSYEGYFLAAEKERDLFKLILKKEDELGDRSIMFTVQNED
B4: IL-18 polypeptide C142 (ligand)
chain: MFGKLKSKLSIIRNLNDQVLFIDQGNRPLFEDMTDSDARDNAPRTIFIISMYADSQPRGMAVAISVKCEKISTLSAENKIISFKEMNPPDNIKDTKSDIIFFQRSVPGHDNKMQFESSSYEGYFLAAEKERDLFKLILKKEDELGDRSIMFTVQNED
notes: also called Y1M, E6K, V11I, C38A, K53A, T63A, C76A, C127A
B5: IL-18 polypeptide C183 (SEQ ID NO: 69) (ligand)
chain: B4 chain with M1Y, M51G
B6: IL-18 polypeptide C179 (ligand)
chain: B4 chain with M1Y, K8E, Q103R
B7: IL-18 polypeptide C149 (ligand)
chain: B4 chain with M1Y, K6E, E31A, A63T
notes: also called V11I, E31A, C38A, K53A, C76A, C127A
B8: IL-18 polypeptide C147 (ligand)
chain: B4 chain with M1Y, K6E, D54A, A63T
notes: also called V11I, C38A, K53A, D54A, C76A, C127A
B9: IL-18 polypeptide C176 (ligand)
chain: B4 chain with M1Y, I49M
notes: also called E6K, V11I, C38A, I49M, K53A, T63A, C76A, C127A
B10: IL-18 polypeptide C182 (ligand)
chain: B4 chain with M1Y, V153Y
B11: IL-18 polypeptide of SEQ ID NO: 56 (E6K, K53A, C38S, C76S, C127S) (ligand)
chain: B4 chain with M1Y, I11V, A38S, A63T, A76S, A127S
B12: IL-18 polypeptide C181 (ligand)
chain: B4 chain with M1Y, V153E
B13: IL-18 polypeptide C144 (ligand)
chain: B4 chain with M1Y, K6E
notes: also called V11I, C38A, K53A, T63A, C76A, C127A
B14: IL-18 polypeptide C148 (ligand)
chain: B4 chain with M1Y, F2A, K6E, A63T
notes: also called F2A, V11I, C38A, K53A, C76A, C127A
B15: IL-18 polypeptide of SEQ ID NO: 34 (E06K, K53A, S55A) (ligand)
chain: B4 chain with M1Y, I11V, A38C, S55A, A63T, A76C, A127C
B16: IL-18 polypeptide C184 (ligand)
chain: B4 chain with M1Y, K6R
notes: also called E6R, V11I, C38A, K53A, T63A, C76A, C127A
B17: IL-18 polypeptide C146 (SEQ ID NO: 68) (ligand)
chain: B4 chain with M1Y, K6E, M51G, A63T
notes: also called V11I, C38A, M51G, K53A, C76A, C127A
B18: IL-18 polypeptide C143 (ligand)
chain: B4 chain with M1Y, K6E, A63T
notes: also called V11I, C38A, K53A, C76A, C127A
B19: IL-18 polypeptide C145 (ligand)
chain: B4 chain with M1Y, K6E, S55A, A63T
notes: also called V11I, C38A, K53A, S55A, C76A, C127A
B20: IL-18 polypeptide C178 (ligand)
chain: B4 chain with M1Y, Q103R
B21: IL-18 polypeptide C177 (ligand)
chain: B4 chain with M1Y, I49R
B22: IL-18 polypeptide C174 (ligand)
chain: B4 chain with M1Y, K8L
notes: also called K8L, E6K, V11I, C38A, K53A, T63A, C76A, C127A
B23: IL-18 polypeptide of SEQ ID NO: 4 (E6K, C38A, K53A, C68A, M86C) (ligand)
chain: B4 chain with M1Y, I11V, A63T, C68A, A76C, M86C, A127C
B24: IL-18 polypeptide of SEQ ID NO: 5 (E6K, V11I, C38A, K53A, T63A, C68A, C76A, M86C, C127A) (ligand)
chain: B4 chain with M1Y, C68A, M86C
B25: IL-18 polypeptide of SEQ ID NO: 43 (E06K, K53A, S55A, Y01G) (ligand)
chain: B4 chain with M1G, I11V, A38C, S55A, A63T, A76C, A127C
B26: IL-18 polypeptide of SEQ ID NO: 9 (E6K, C38A, K53A, C68A, D98C) (ligand)
chain: B4 chain with M1Y, I11V, A63T, C68A, A76C, D98C, A127C
B27: IL-18 polypeptide of SEQ ID NO: 6 (E6K, V11I, C38A, K53A, T63A, C68A, C76A, D98C, C127A) (ligand)
chain: B4 chain with M1Y, C68A, D98C
B28: IL-18 polypeptide of SEQ ID NO: 49 (E06K, K53A, S55A, C38S, C68S, C76S, C127S, K70C) (ligand)
chain: B4 chain with M1Y, I11V, A38S, S55A, A63T, C68S, K70C, A76S, A127S
B29: IL-18 polypeptide of SEQ ID NO: 55 (K53A, T63A, C38S, C68S, C76S, C127S, K70C) (ligand)
chain: B4 chain with M1Y, K6E, I11V, A38S, C68S, K70C, A76S, A127S
B30: IL-18 polypeptide of SEQ ID NO: 35 (Y01G, F02A, E06K, M51G, K53A, D54A, S55A, T63A) (ligand)
chain: B4 chain with M1G, F2A, I11V, A38C, M51G, D54A, S55A, A76C, A127C
B31: IL-18 polypeptide of SEQ ID NO: 45 (E06K, K53A, S55A, D54A) (ligand)
chain: B4 chain with M1Y, I11V, A38C, D54A, S55A, A63T, A76C, A127C
B32: IL-18 polypeptide of SEQ ID NO: 47 (C38S, C68S, C76S, C127S) (ligand)
chain: B4 chain with M1Y, K6E, I11V, A38S, A53K, A63T, C68S, A76S, A127S
B33: IL-18 polypeptide of SEQ ID NO: 46 (E06K, K53A, S55A, M51G) (ligand)
chain: B4 chain with M1Y, I11V, A38C, M51G, S55A, A63T, A76C, A127C
B34: IL-18 polypeptide of SEQ ID NO: 44 (E06K, K53A, S55A, F02A) (ligand)
chain: B4 chain with M1Y, F2A, I11V, A38C, S55A, A63T, A76C, A127C
B35: IL-18 polypeptide of SEQ ID NO: 48 (C38S, C68S, C76S, C127S, K70C) (ligand)
chain: B4 chain with M1Y, K6E, I11V, A38S, A53K, A63T, C68S, K70C, A76S, A127S

molecular target: T1, IL-18 receptor (IL-18Rα/IL-18Rβ) on …; assay: cell-based or functional assay

EC50, HEK-Blue IL18R reporter cells	Binder
1.68 pM	B1
14 pM	B2
2.5 pM	B3
0.02 pM	B4
0.1 pM	B5
0.4 pM	B6
6.6 pM	B7
1 pM	B8
0.07 pM	B9
0.08 pM	B10
3.73 pM	B11
0.1 pM	B12
0.17 pM	B13
7.28 pM	B14
272 pM	B15
0.04 pM	B16
0.8 pM	B17
0.98 pM	B18
3.63 pM	B19
0.26 pM	B20
0.04 pM	B21
0.29 pM	B22

molecular target: T1, IL-18 receptor (IL-18Rα/IL-18Rβ) on …; assay: cell-based or functional assay; remark: another data set of the same source

EC50, IFNγ stimulation, NK92 cells	Binder
0.022 nM	B23
0.075 nM	B24
6.12 nM	B25
0.069 nM	B26
1.37 nM	B27
58.5 nM	B28
17.2 nM	B29
> 55 nM	B30
0.187 nM	B7
30 nM	B31
0.079 nM	B8
0.115 nM	B32
0.012 nM	B13
0.256 nM	B14
0.824 nM	B15
0.037 nM	B17
0.138 nM	B18
0.087 nM	B19
7.4 nM	B33
> 1000 nM	B34
0.488 nM	B35

molecular target: T2, human IL-18BP-His; assay: AlphaLISA of free IL-18BP
Protocol: The plate is incubated further for 1 hr at room temperature. Under subdued light, 12.5 µL of 2× streptavidin (SA) donor beads are pipetted into each well, and the wells are incubated with shaking for an additional 30 min at room temperature. The AlphaLisa signal is then measured on an Enspire plate reader with 680 and 615 nm as excitation and emission wavelengths, respectively. The dissociation constant (K_D) is calculated based on a variable slope, four parameter analysis using GraphPad PRISM software.

Kd	Binder
2.25 nM	B4
913 nM	B29
0.64 nM	B7
25.8 nM	B8
25.8 nM	B9
0.03 nM	B32
436 nM	B11
0.66 nM	B13
57.2 nM	B14
5.46 nM	B16
373 nM	B17
8.86 nM	B18
9.74 nM	B19
0.14 nM	B22
0.21 nM	B35
